Results taken from article PMC1849897 (Nucleic Acids Research, 2007).

Target: the molecule itself
Assay: SEC

B1: Py-DmBLM (Drosophila Bloom's syndrome helicase homolog with an N-terminal polyoma epitope tag) (enzyme)
chain: not shown
  stoichiometry N: ~7
